Laboratory results as given in publication PMC9631798 (2022).
Several values for one entry are separate records, joined by “and”; a condition that tells them apart may be missing. Equal values may be shown once.

B1: Biotinylated human IL-2Rα extracellular domain (residues 1-217) (receptor)
chain: ELCDDDPPEIPHATFKAMAYKEGTMLNCECKRGFRRIKSGSLYMLCTGNSSHSSWDNQCQCTSSATRNTTKQVTPQPEEQKERKTTEMQSPMQPVDQASLPGHCREPPPWENEATERIYHFVVGQMVYYQCVQGYRALHRGPAESVCKMTHGKTRWTQPQLICTGEMETSQFPGEEKPQASPEGRPESETSCLVTTTDFQIQTEMAATMETSIFTTE
modifications: biotin on the biotin acceptor peptide (BirA ligase)
B2: F5111.2 Antibody (N297A) (antibody, V domains shown)
VH: QLQLQESGPGLVKPSQTLSLTCTVSGGSISSGGYYWSWIRQHPGKGLEWIGYIYKSGSAYYSPSLKSRVTISVDTSKNQFSLKLSSVTAADTAVYYCARTPTVTGDWFDPWGRGTLVTVSS
VL: NFMLTQPHSVSESPGKTVTISCTRSSGSIASNYVQWYQQRPGSSPTTVIYEDNQRPSGVPDRFSGSIDSSSNSASLTISGLKTEDEADYYCQTYDSIDVYFGGGTKLTVL
B3: F5111 antibody (antibody, V domains shown)
VH: QLQLQESGPGLVKPSQTLSLTCTVSGGSISSGGYYWSWIRQHPGKGLEWIGYIYYSGSTYYNPSLKSRVTISVDTSKNQFSLKLSSVTAADTAVYYCARTPTVTGDWFDPWGRGTLVTVSS
VL: NFMLTQPHSVSESPGKTVTISCTRSSGSIASNYVQWYQQRPGSSPTTVIYEDNQRPSGVPDRFSGSIDSSSNSASLTISGLKTEDEADYYCQSYDSSNVVFGGGTKLTVL
B4: Biotinylated human IL-2Rβ extracellular domain (residues 1-214) (receptor)
chain: AVNGTSQFTCFYNSRANISCVWSQDGALQDTSCQVHAWPDRRRWNQTCELLPVSQASWACNLILGAPDSQKLTTVDIVTLRVLCREGVRWRVMAIQDFKPFENLRLMAPISLQVVHVETHRCNISWEISQASHYFERHLEFEARTLSPGHTWEEAPLLTLKQKQEWICLETLTPDTQYEFQVRVKPLQGEFTTWSPWSQPLAFRTKPAALGKDT
modifications: biotin on the biotin acceptor peptide (BirA ligase)

What was measured:
[1] = target: hIL-2/F5111.2 complex (1:1 molar ratio) (human, UniProt P60568 21-153); test: BLI
[2] = target: hIL-2/F5111 complex (1:1 molar ratio) (human, UniProt P60568 21-153); test: BLI
F5111 IC LN35 = F5111 IC LN35 (human, UniProt P60568 21-153); test: BLI
F5111.2 IC LN35 = F5111.2 IC LN35 (human, UniProt P60568 21-153); test: BLI
[3] = target: Control (FITC-E2) IC LN35 (human, UniProt P60568 21-153); test: BLI
F5111 IC LN15 = F5111 IC LN15 (human, UniProt P60568 21-153); test: BLI
Biotinylated human IL-2 [4] = target: T1, Biotinylated human IL-2 (human, UniProt P60568 21-153, biotin on the biotin acceptor peptide (BirA ligase)); test: BLI
T1 sequence (P60568 21-153): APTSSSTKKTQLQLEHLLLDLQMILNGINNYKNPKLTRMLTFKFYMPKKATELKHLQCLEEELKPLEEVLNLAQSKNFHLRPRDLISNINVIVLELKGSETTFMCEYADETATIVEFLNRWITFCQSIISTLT

[5] = target: yeast-displayed hIL-2 (residues 1-133) (human, UniProt P60568 21-153); test: FACS; yeast surface display
Sequence of yeast-displayed hIL-2 (residues 1-133) (P60568 21-153): as above

Biotinylated human IL-2 [6] = target: T1, Biotinylated human IL-2; test: BLI; Fig S1E
F5111 IC LN25 = F5111 IC LN25 (human, UniProt P60568 21-153); test: BLI

Row | Binder | Kd [1] [nM] | Kd [2] [nM] | Kd (F5111 IC LN35) | Kd (F5111.2 IC LN35) [nM] | Kd [3] | Kd (F5111 IC LN15) [nM] | Kd (Biotinylated human IL-2 [4]) [nM] | Kd [5] [nM] | Kd (Biotinylated human IL-2 [6]) [nM] | Kd (F5111 IC LN25) [nM]
1 | B1 | 68 | 18 | 3.2 nM and 3 nM | 2.4 | 2.5 nM and 3.4 nM | 7.5 | – | – | – | –
2 | B2 | – | – | – | – | – | – | 4.9 | – | – | –
3 | B3 | – | – | – | – | – | – | 2.7 | 0.42 | 2.1 | –
4 | B4 | > 2000 | > 2000 | > 2000 nM | > 2000 | 4.1 nM and 4.4 nM | 210 | – | – | – | > 2000
